Reference: patent US20240043504A1 (published 2024)
Substitutions are numbered along the chain they refer to. “And” between values parts separate entries of the source, which are not always exact repeats. Equal entries are not always repeated.

B1: mAb10933 (antibody, V domains shown)
VH: QVQLVESGGGLVKPGGSLRLSCAASGFTFSDYYMSWIRQAPGKGLEWVSYITYSGSTIYYADSVKGRFTISRDNAKSSLYLQMNSLRAEDTAVYYCARDRGTTMVPFDYWGQGTLVTVSS
VL: DIQMTQSPSSLSASVGDRVTITCQASQDITNYLNWYQQKPGKAPKLLIYAASNLETGVPSRFSGSGSGTDFTFTISGLQPEDIATYYCQQYDNLPLTFGGGTKVEIKR
B2: mAb10934 (antibody, V domains shown)
VH: not shown
VL: B1 VL with T30W, L33I, A50D, E55K, G77S, Y91H, N93D, L96P, G100Q
B3: mAb10987 (antibody, V domains shown)
VH: QVQLVESGGGVVQPGRSLRLSCAASGFTFSNYAMYWVRQAPGKGLEWVAVISYDGSNKYYADSVKGRFTISRDNSKNTLYLQMNSLRTEDTAVYYCASGSDYGDYLLVYWGQGTLVTVSS
VL: QSALTQPASVSGSPGQSITISCTGTSSDVGGYNYVSWYQQHPGKAPKLMIYDVSKRPSGVSNRFSGSKSGNTASLTISGLQSEDEADYYCNSLTSISTWVFGGGTKLTVLG
B4: mAb10989 (antibody, V domains shown)
VH: QVQLVQSGAEVKKPGASVKVSCKASGYIFTGYYMHWVRQAPGQGLEWMGWINPNSGGANYAQKFQGRVTLTRDTSITTVYMELSRLRFDDTAVYYCARGSRYDWNQNNWFDPWGQGTLVTVSS
VL: B3 VL with G31T, Y51F, K55N, N62D, S82A, N91S, L93F, S95T, I96S, W99V
B5: mAb10936 (antibody, V domains shown)
VH: QVQLVESGGGVVQPGRSLRLSCAASGFTFRNYGMHWVRQAPGKGLEWVSVIWYDGSNRYYADSVKGRFTISRDTSKNTLYLQMNSLRAEDTAVYYCARDPPITGTTGGDAFDIWGQGTMVTVSS
VL: not shown
B6: mAb10934 (antibody, V domains shown)
VH: not shown
VL: B1 VL with T30W, L33I, A50D, E55K, G77S, Y91H, N93D, L96P, G100Q
B7: mAb10954 (antibody, V domains shown)
VH: EVQLVESGGGLVQPGGSLRLSCAASGITVSSNYMSWVRQAPGKGLEWVSLIYSGGSTYYADSVKGRFTISRDNSKNTLYLQMNSLRVEDTAVYYCARDHGMAAAGYNYWGQGTLVTVSS
VL: B1 VL with T30N, N31K, A50D, S76N, G77S, I83F, Y87F, L96P, T97A, G100Q
B8: mAb10933 (antibody, V domains shown)
VH: B1 VH
VL: B1 VL
B9: mAb10920 (antibody, V domains shown)
VH: QVQLVESGGGVVQPGRSLRLSCAASGFTFSYYGMHWVRQAPGKGLEWVAVIWYDGSNKFYADSVKGRFTISRDNSKNTLYLQMNSLRAEDTAVYYCAAARPGYYYGMDVWGQGTTVTVSS
VL: DIQMTQSPSSLSASVGDRVTITCRASQGISNYLAWFQQKPGKAPNSLIYAASSLQRGVPSKFSGSGSGTDFTLTISSLQPEDFATYYCQQYNSYPRTFGQGTKVEIKR
B10: mAb10986 (antibody, V domains shown)
VH: EVQLVESGGGLVQPGGSLRLSCAASEFTVSSNYMSWVRQAPGKGLEWVSVIYSGGSTFYADSVKGRFTISRDNSKNTLYLQMNSLRAEDTAVYYCARALPYGDLHFDYWGQGTLVTVSS
VL: QSVLTQPPSVSGAPGQRVTISCTGSSSNIGTGYDVHWYQQLPGTAPKLLIYGNTNRPSGVPDRFSGSKSGTSASLAITGLQAEDEADYYCQSYDSSLSDSYVFGTGTKVTVLG
B11: mAb10984 (antibody, V domains shown)
VH: EVQLVESGGGLVQPGGSLRLSCAASGLTVNRNYMSWVRQAPGKGLEWVSLIYSGGSTYYADSVKGRFTISRDNSKNTLYLQMNSLRLEDTAVYYCARGELGIPYGMDVWGQGTTVTVSS
VL: QSVLTQPPSVSAAPGQKVTISCSGSSSNIGNNYVSWYQQLPGTAPKLLIYDNNKRPSGIPDRFSGSKSGTSATLGITGLQTGDEADYYCGTWDSSLSAGVFGGGTKLTVLG
B12: mAb10954 (antibody, V domains shown)
VH: B7 VH
VL: B1 VL with T30N, N31K, A50D, S76N, G77S, I83F, Y87F, L96P, T97A, G100Q
B13: mAb10967 (antibody, V domains shown)
VH: EVQLVESGGGLVQPGGSLRLSCAASGFTVSSNYMSWVRQAPGKGLEWVSVIYPGGSTFYADSVKGRFTISRDNSKNTLYLQMNSLRAEDTAVYYCARDQRDFAWGQGTLVTVSS
VL: B1 VL with T30S, A50D, L96P, G100Q, K103R, V104L
B14: mAb10966 (antibody, V domains shown)
VH: EVQLVESGGGLVQPGGSLRLSCAASGLTVSSNYMSWVRQAPGKGLEWVSVIYSGGSTFYADSVKGRFTISRDNSKNTLYLQMNSLRPEDTAVYYCAREGRIAATGYGMDVWGQGTTVTVSS
VL: not shown
B15: mAb10965 (antibody, V domains shown)
VH: EVQLVESGGGLIQPGGSLRLSCAASVFTVSYNYMSWVRQAPGKGLEWVSVIYSGGSTYYADSVKGRFTISRDNSKNTLYLQMNSLRAEDTAVYYCARALPGWGGSFEYFDYWGQGTLVTVSS
VL: not shown
B16: mAb10956 (antibody, V domains shown)
VH: EVQLVESGGGLVQPGGSLRLSCAASGLTVSSNYMSWVRQAPGKGLEWVSVIYSGGSTFYADSVKGRFTISRDNSKNTLYLQMNSLRAEDTAVYYCARDLIKYGMDVWGQGTTVTVSS
VL: not shown
B17: mAb10957 (antibody, V domains shown)
VH: B16 VH with L27V, Y79F, A87I, I100G, K101P
VL: DIQLTQSPSFLSASVGDRVTITCRASQGISSYLAWYQQKPGKAPKLLIYAASTLQSGVPSRFSGSGSGTQFILTISSLQPEDFATYYCQQLNSYPGFTFGPGTKVDIKR
B18: mAb10989 (antibody, V domains shown)
VH: B4 VH
VL: B3 VL with G31T, Y51F, K55N, N62D, S82A, N91S, L93F, S95T, I96S, W99V

target: full-length SARS-CoV-2 spike protein (amino acids M1-T1273 of accession number YP_009724390.1) on Ju (SARS-CoV-2, UniProt P0DTC2 14-1273); assay: cell-based or functional assay

Binder | ADCP EC50 [M], Jurkat/hCD20/SARS-CoV-2 Spike cells [M] | ADCP Max (% ADCP), Jurkat/hCD20/SARS-CoV-2 Spike cells [%]
B1 | 5.79e-12 | 53.4
B2 | 2.72e-12 | 40.1
B3 | 6.33e-12 | 56.7
B4 | 4.86e-12 | 56

target: receptor binding domain (RBD) portion of the SARS-CoV-2 Spike protein (amino acids Arg319-Phe541) ex (SARS-CoV-2); assay: not given

Binder | IC50
B2 | 0.066 nM and 0.0597 nM
B4 | 0.0591 nM and 0.0428 nM

target: SARS-CoV-2 spike protein (S-wt, Wuhan-Hu-1, NCBI Accession Number MN908947.3) on VSV pseudoparticles (SARS-CoV-2, UniProt P0DTC2 14-1273); assay: cell-based or functional assay

Binder | IC50 (M), neutralization [M]
B5 | 1.11e-10
B6 | 5.44e-11
B7 | 9.22e-11
B8 | 4.28e-11
B9 | 2.64e-10
B10 | 9.91e-11
B11 | 9.73e-11

target: Human SARS Coronavirus Spike S1 Subunit Protein (His Tag) (Sino 40150-V08B1) (Human SARS Coronavirus, UniProt P59594 14-667); assay: Luminex bead binding, supernatant

Binder | Binding signal (MFI)
B12 | 15
B13 | 21
B14 | 20
B15 | 16
B16 | 16
B17 | 16
B18 | 21
